Square brackets hold non-standard residues; d marks the D form. Primed or numbered codes have the meaning given here. Ends that are not written are not given here. pGlu = O=C1CC[C@@H](C(=O)O)N1; Biotin′ = not defined here
B1: Comparator Ab1 (antibody, human IgG1, kappa, V domains shown)
VH: QVQLVQSGAEVKKPGSSVKVSCKASGYDFTRYYINWVRQAPGQGLEWMGWINPGSGNTKYNEKFKGRVTITADESTSTAYMELSSLRSEDTAVYYCAREGITVYWGQGTTVTVSS
VL: DIVMTQTPLSLSVTPGQPASISCKSSQSLLYSRGKTYLNWLLQKPGQSPQLLIYAVSKLDSGVPDRFSGSGSGTDFTLKISRVEAEDVGVYYCVQGTHYPFTFGQGTKLEIKR
notes: Detected with anti-human IgG in the in vivo study; also called comparator antibody Ab1
B2: AC-264713, hu Aβ (AC-264713) [hu IgG1/K] (antibody, V domains shown)
VH: EVQLQESGPGLVKPSQTLSLTCTFSGFSLSTSGMGVSWIRQPPGKGLEWLAHIYWDDDKRYNPYMKRRLTISKDTSKNQVSLKISSVTAADTAVYYCARRADDYDVGFAYWGQGTLVTVSS
VL: DIQMTQSPSSVSASVGDRVTITCLASQTIGTWLAWYQQKPGKSPKLLIYAATSLADGVPSRFSGSGSGTDFTLTISSLQPEDFATYYCQQLYSSPFTFGQGTKLEIKR
notes: It is the only humanized antibody described

Experiments:
[1] = target: T1, amyloid plaques in human AD brain tissue (human, UniProt P05067 674-713); assay: immunostaining of unfixed human AD cortex sections, % area covered, 6 donors fitted together
T1 construct: Target presented in tissue sections; also called plaques in AD brain tissue

human Aβ 1-40 fibrils = human Aβ 1-40 fibrils (human); assay: direct binding ELISA
Mouse/Rat Aβ 1-40 = target: T2, Mouse/Rat Aβ 1-40 (mouse/rat); assay: direct binding ELISA
T2 construct: also called Aβ1-40 from rat and mouse
T2 peptide: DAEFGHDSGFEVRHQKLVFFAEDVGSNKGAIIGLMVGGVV

pEG7 Pyr …-Biotin = target: T3, pEG7 Pyr …-Biotin (human); assay: direct binding ELISA, peptide coated 100 ng/well, average ± SD of three experiments
T3 peptide: [pGlu]FRHGSGYEVHHQK-{Biotin′}
Protocol: (§1) Recombinant human Aβ biotinylated peptides were diluted in distilled water. Aβ peptides were diluted to a working concentration of 2 μg/mL, and 50 μL per well (100 ng/well) was added to 96-well half area high-binding ELISA plates. The plates were incubated overnight at 4° C. shaking at 100 rpm. Following coating, the plates were washed four times with 190 µL/well of 1×PBS using an automated plate washer. The plates were blocked with 190 µL/well of 2% BSA in DPBS and incubated for 1 hr. at RT. Reagents for ELISA were diluted in 0.25% BSA in DPBS.
(§2) After incubation for blocking, plates were washed four times with 190 μL/well of 1×PBS using automated plate washer. […] The plates were incubated for 30 min at RT. After four washes with PBS, 50 μL of TMB substrate was added into each well, and the plates were incubated at RT for about 5-10 min until color developed. The reaction was stopped by adding 50 μL per well of 2N sulfuric acid. Plates were read on a ClarioStar plate reader to obtain the absorbance at 450 nm (OD₄₅₀). […] Three independent experiments were performed.

pEG8 Pyr …-Biotin = target: T4, pEG8 Pyr …-Biotin (human); assay: as above
T4 peptide: [pGlu]FRHDGGYEVHHQK-{Biotin′}
Protocol: as §1, §2

pEG6 Pyr …-Biotin = target: T5, pEG6 Pyr …-Biotin (human); assay: as above
T5 peptide: [pGlu]FRGDSGYEVHHQK-{Biotin′}
Protocol: as §1, §2

pE3-16 Pyr-…-Biotin = target: T6, pE3-16 Pyr-…-Biotin (human); assay: as above
T6 peptide: [pGlu]FRHDSGYEVHHQK-{Biotin′}
Protocol: as §1, §2

[2] = target: T7, E3-16-EFRHDSGYEVHHQK-Biotin (human); assay: as above
T7 construct: N-terminal glutamate is not pyroglutamated
T7 peptide: EFRHDSGYEVHHQK-{Biotin′}
Protocol: as §1, §2

pEF10 Pyr …-Biotin = target: T8, pEF10 Pyr …-Biotin (human); assay: as above
T8 peptide: [pGlu]FRHDSGGEVHHQK-{Biotin′}
Protocol: as §1, §2

[3] = target: T1, amyloid plaques in human AD brain tissue; assay: immunostaining of unfixed human AD cortex sections with biotinylated antibody, % area covered, 6 donors fitted together
Protocol: Unfixed, 20 μm tissue sections were prepared from cerebral cortex of human cadaver AD brain using a cryostat and were thaw-mounted onto glass slides. The tissue sections were then incubated in Tris-buffered saline (TBS) containing 0.3% H₂O₂ for 10 minutes. After three washes with TBS, the sections were incubated in TBS containing 3% milk for 30 minutes. […] After three washes with TBS, the immunoreactivity was visualized by incubation in 1:400 ABC Elite for one hour followed by DAB for five minutes.
The images were acquired from all the samples using a slide scanner. […] Using the software, the gray matter was outlined, and the “threshold” was determined by an observer who was blind to the staining conditions. The threshold was set so that the DAB signal was recognized by the software and the background/non-specific staining was excluded from the analysis. Once an appropriate threshold was set, the software measured the percentage of the area of interest containing the positive signal.
A nonlinear regression analysis was carried out using Prism Version 9.1.0 (Graph Pad Software). A variable slope model, 9% area covered by IR=Bottom+(X^{HillSlope})*(Top−Bottom)/(X^{HillSlope}+EC₅₀^{HillSlope}), was used, where Bottom was fixed to zero, and Top was fixed to 10% as the typical total area covered by plaques. Data for all six donors were analyzed in a combined data fit.

T1 sequence (P05067 674-713): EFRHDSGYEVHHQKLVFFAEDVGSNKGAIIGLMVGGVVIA

Binder | EC50 [1] | binding result (human Aβ 1-40 fibrils) | binding result (Mouse/Rat Aβ 1-40) | EC50 (pEG7 Pyr …-Biotin) | EC50 (pEG8 Pyr …-Biotin) | EC50 (pEG6 Pyr …-Biotin) | EC50 (pE3-16 Pyr-…-Biotin) | EC50 [2] | EC50 (pEF10 Pyr …-Biotin) | EC50 [3]
B1 | 12 µg/mL | – | – | – | – | – | – | – | – | –
B2 | – | no binding | no binding | 0.4 nM | 0.4 nM | 0.5 nM | 0.3 nM | 0.9 nM | 0.5 nM | 0.4 µg/mL
